In experiment [1] the target is human MET on SNU-5 cells (human) (UniProt P08581). Nature of the experiment: flow cytometry on SNU-5 cells (evaluated as No binding). (In general: A flow cytometer gives signals particle by particle.)
Experiment [2] concerns the target human EGFR on CHO-S-hEGFR cells (human) (UniProt P00533). Nature of the experiment: flow cytometry on CHO-S-hEGFR cells (evaluated as No binding).
For experiment [3], the target named is dog MET on dMET-NIH3T3 cells (dog (Canis lupus, printed 'Cans lupus')) (UniProt Q75ZY9). Nature of the experiment: flow cytometry on dMET-NIH3T3 cells (evaluated as No binding).
The target of experiment [4] is human MET on hMET-NIH3T3 cells (human) (UniProt P08581). Put plainly: flow cytometry on hMET-NIH3T3 cells (evaluated as No binding).
Experiment [5] concerns the target monkey EGFR on CHO-S-fasEGFR cells (monkey (crab-eating macaque; Macaca fascicularis)) (UniProt P55245). Put plainly: flow cytometry on CHO-S-fasEGFR cells (evaluated as No binding).
Experiment [6] has the same target. Described as above. The source holds these as a separate data set.
For experiment [7], the target named is monkey MET on fasMET-NIH3T3 cells (monkey (Macaca fascicularis)). Put plainly: flow cytometry on fasMET-NIH3T3 cells (evaluated as No binding).
For experiment [8] the target is unchanged. Described as above. This is another data set of the same source.
The target in experiment [9] is His-tagged monkey MET (monkey). Put plainly: SPR (Biacore 8K), Protein A chip.

One may read the pKd as −log10 of the Kd, conventionally taken in molar units. One may read the koff as the first-order rate constant of dissociation. In general, kon refers to the rate constant with which the complex forms.

pKd: −log10 of the molar value. Where two headings read alike, the source gives them in different places.

monkey MET on fasMET-NIH3T3 cells (monkey (Macaca fascicularis)), sequence (chain, as listed by the source limits assumed): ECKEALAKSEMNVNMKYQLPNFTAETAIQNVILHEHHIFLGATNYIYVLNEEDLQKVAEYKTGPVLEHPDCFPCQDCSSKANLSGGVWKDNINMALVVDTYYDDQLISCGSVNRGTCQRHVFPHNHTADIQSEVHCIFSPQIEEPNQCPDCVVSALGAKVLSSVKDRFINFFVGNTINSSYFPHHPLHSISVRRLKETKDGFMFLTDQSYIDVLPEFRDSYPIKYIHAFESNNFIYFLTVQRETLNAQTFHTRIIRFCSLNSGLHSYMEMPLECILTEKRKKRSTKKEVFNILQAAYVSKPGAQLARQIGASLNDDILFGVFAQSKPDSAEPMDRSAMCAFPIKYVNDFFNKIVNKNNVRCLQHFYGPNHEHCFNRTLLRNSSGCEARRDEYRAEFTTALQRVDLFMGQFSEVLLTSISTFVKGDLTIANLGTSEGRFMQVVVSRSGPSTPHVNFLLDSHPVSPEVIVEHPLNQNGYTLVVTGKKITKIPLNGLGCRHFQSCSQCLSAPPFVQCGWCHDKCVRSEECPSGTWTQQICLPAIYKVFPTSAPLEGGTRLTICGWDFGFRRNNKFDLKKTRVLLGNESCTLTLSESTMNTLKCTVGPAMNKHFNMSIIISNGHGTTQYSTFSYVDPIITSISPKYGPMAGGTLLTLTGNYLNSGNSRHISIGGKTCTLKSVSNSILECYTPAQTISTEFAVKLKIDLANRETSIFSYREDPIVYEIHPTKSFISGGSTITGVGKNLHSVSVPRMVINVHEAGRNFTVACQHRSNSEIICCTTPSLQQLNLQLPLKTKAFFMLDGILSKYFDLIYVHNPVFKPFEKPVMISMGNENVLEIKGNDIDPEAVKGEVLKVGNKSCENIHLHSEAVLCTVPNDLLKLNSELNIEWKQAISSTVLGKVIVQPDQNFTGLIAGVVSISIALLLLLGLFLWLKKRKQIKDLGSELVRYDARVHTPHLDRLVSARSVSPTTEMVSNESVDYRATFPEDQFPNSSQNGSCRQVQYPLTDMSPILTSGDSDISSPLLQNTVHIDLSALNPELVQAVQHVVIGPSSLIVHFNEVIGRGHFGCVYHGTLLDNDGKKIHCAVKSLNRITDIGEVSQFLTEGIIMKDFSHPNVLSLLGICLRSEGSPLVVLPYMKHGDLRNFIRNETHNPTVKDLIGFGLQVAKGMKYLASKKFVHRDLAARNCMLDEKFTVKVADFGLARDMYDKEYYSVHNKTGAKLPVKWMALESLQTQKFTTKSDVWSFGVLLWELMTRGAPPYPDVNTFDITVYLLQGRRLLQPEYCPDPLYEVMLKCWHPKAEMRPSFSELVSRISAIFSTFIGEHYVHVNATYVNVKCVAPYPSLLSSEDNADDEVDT
human MET on hMET-NIH3T3 cells (human), sequence (P08581 25-1390 limits assumed): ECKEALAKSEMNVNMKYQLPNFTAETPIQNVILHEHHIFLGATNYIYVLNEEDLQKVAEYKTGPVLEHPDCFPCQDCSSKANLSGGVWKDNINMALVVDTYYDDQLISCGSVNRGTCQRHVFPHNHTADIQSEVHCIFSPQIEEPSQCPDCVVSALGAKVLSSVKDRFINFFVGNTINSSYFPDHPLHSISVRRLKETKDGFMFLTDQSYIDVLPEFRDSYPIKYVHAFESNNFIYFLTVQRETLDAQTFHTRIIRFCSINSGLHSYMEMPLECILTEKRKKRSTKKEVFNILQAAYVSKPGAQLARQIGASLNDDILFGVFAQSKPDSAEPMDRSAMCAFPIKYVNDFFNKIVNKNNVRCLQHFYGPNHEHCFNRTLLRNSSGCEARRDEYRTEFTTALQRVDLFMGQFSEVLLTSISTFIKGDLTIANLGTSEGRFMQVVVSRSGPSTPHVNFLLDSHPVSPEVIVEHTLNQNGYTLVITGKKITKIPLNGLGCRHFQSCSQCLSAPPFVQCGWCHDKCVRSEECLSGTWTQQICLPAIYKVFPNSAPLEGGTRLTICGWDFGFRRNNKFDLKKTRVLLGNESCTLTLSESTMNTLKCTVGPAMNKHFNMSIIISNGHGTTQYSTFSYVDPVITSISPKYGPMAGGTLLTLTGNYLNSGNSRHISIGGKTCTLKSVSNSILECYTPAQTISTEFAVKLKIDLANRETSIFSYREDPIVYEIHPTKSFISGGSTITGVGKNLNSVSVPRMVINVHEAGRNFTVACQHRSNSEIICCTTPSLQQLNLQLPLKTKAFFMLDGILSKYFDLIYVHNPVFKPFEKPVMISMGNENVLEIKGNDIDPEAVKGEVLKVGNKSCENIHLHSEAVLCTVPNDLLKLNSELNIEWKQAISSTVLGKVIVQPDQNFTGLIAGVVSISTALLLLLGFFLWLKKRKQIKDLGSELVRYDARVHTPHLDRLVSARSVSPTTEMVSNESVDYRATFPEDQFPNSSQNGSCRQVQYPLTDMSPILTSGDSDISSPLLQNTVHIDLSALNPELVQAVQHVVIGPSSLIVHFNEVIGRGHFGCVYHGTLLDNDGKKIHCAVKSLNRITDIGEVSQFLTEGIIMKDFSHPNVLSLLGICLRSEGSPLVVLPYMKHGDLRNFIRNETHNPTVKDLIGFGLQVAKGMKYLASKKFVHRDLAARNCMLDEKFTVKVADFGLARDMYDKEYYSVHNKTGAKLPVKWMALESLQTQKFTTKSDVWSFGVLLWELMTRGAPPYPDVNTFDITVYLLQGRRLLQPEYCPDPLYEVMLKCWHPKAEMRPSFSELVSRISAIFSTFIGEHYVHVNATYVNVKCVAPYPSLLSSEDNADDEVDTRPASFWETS
human MET on SNU-5 cells (human), sequence (P08581 25-1390): as the sequence (P08581 25-1390 limits assumed) above

As to NC, the Percentage of Positive Cells was found to be 2.5% in experiment [1]; 0% in [2]; 0.29% in experiment [3]; 1.01% in [4]; 0.2% in experiment [5]; 0.65% in experiment [6]. Also, the Percentage of Positive Cells in [7] stood at 0.8%; in [8] it was 1.29%.

For the substance Telisotuzumab analog (antibody), in experiment [9], the pKd is 8.82, the off-rate constant (koff) was found to be 9.41e-05 s⁻¹ and the kon is 62600 M⁻¹ s⁻¹.

These data come from US20250382373A1, “ANTI-EGFR/MET ANTIBODIES AND USES THEREOF” (Biocytogen Pharmaceuticals (Beijing) Co., Ltd., priority 2022, published 2025).
